According to paper PMC9224930, “VH3-53/66-Class RBD-Specific Human Monoclonal Antibody iB20 Displays Cross-Neutralizing Activity against Emerging SARS-CoV-2 Lineages” (Journal of Personalized Medicine, 2022):

Target: T1, SARS-CoV-2 Wuhan-1 receptor-binding domain (RBD) (SARS-CoV-2 (Wuhan-1), UniProt P0DTC2)
T1 construct: also called Wuhan RBD; w.t; RBD
Assay: BLI; pairwise competition on NTA biosensors (Octet RED96): Wuhan RBD immobilised via its 6xHis tag (200 s), first antibody added (600 s), then the second (600 s)
Settings: both partners purified

B1: nAb CV30 (antibody, V domains shown)
VH: QVQLVESGGGLIQPGGSLRLSCAASGVIVSSNYMSWVRQAPGKGLEWVSVIYSGGSTYYADSVKGRFTISRDNSKNTLYLQMNSLRAEDTAVYYCARDLDVSGGMDVWGQGTTVTVSS
VL: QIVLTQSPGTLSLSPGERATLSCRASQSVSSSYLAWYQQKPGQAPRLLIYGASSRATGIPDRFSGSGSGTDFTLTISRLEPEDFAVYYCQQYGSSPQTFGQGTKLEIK
notes: also called recombinant CV30
- binding result: binds
